Entries after “also recorded” stand apart in the source; their conditions may differ.
What was measured:
ARCaPE and ARCaPM cells = experiment: EMT marker / RANKL expression by RT-PCR and Western blot and morphology, ARCaP model; format: cell-based, human; design: N-cadherin expression in ARCaPE cells (Example 9) / E-cadherin expression in ARCaPE cells (Example 9) / Snail expression in ARCaPE cells (Example 9) / vimentin expression in ARCaPE cells (Example 9): dose or concentration left out as unconfirmed
Method: 4×10^5 ARCaP and PC3 cells were seeded into a 6-well plate and cultured for 48 hrs until they grow to 90% confluence. The RANKL siRNA (50 pmole) and siRNA control (50 pmole) and lipofetamine (2.5 ul) were mixed with 250 ul of OPTI-medium without any FBS, respectively and incubated at RT for 5 minutes. The DNA and lipofetamine were then mixed together and incubated for 20 minutes before adding to the cells in each well. The medium was changed to normal 5% T-medium after 6 h incubation. The cells were incubated at 37° C. for two days before harvesting.
Total of 30 ug of proteins per well from both ARCaPE and ARCaPM cells were run on a Tris-Bis 4-12% gradient polyacrylamide gel (Invitrogen) one and half hours at 150 Volts. The proteins on the gel were then transferred to PVDF membranes using Hoefer semi-dry system. The membranes were incubated with 5% skim milk in PBST (Blocking solution) for 20 min to block non-specific antibody labeling. The RANKL primary antibody was diluted with blocking solution (1:200 and 1:500) and incubated with the membrane for one hour at RT on a rocker or overnight at 4° C. The membrane was washed with PBST (PBS+0.01% TWEEN) three times for a minimum of 5 min each. Secondary rabbit anti-goat antibodies were incubated with the membrane for one hour at RT on a rocker. The membrane was again washed with PBST three times for 5 min each. Chemiluminescent substrate (Western Lightning) was evenly added across the top surface of the membrane, and the membrane was exposed to X-ray films for 30 seconds to 2 minutes depending on the strength of the signals and then developed according to the manufacturer's instructions.
For each reaction, a 50 μl PCR reaction mix containing 5 μl of 10×PCR buffer, 1.5 ul of 50 mM MgCl2, 1 ul of 10 mM dNTP, 1 ul of each forward and reverse primers (RANKL F: […] (SEQ ID NO:1) and RANKL R: […] (SEQ ID NO:2); GAPDH as the positive control), 3 ul cDNA, 37 ul double distilled water, and 0.5 μl of Taq polymerase (Invitrogen) was made. The reaction was first activated at 94° C. for 2 min and run for 36 cycles of 94° C. (30 sec-melting), 60° C. (30 sec-annealing), and 72° C. (60 sec-extension), and lastly incubated at 72° C. for 5 min to amplify the cDNA. A 1% gel electrophoresis was run with 5 μl of 100 by DNA ladder and 10 μl of amplified cDNA of each sample to check the size of the cDNA and also whether it was successfully synthesized under UV light. […]
ARCaPE or ARCaPM cells were seeded into 6-well plate and transiently transfected with flag-tagged RANKL or neo plasmid DNA under the regulation by CMV-promoter, or RANKL siRNA (Santa Cruz Biotechnology, Inc., Santa Cruz, Calif.) with an universal scramble siRNA which serves as the control (Invitrogen, Carlsbad, Calif.). After 48 h of transfection, cells were harvested for western blotting and RT-PCR analyses. For stable transfection, LNCaP cells were first transfected with either flag-tagged RANKL- or neo-control-plasmid cDNA (Sigma-Aldrich, St. Louis, Mo.) in a 6-well plate for 48 h, and the cells were trypsinized and seeded into a 15 cm dish. The cells contain the transfected vector were selected in 400 μg/ml of G418 until individual colonies that contain transfected construct were formed. LNCaP cell colonies expressing flag-tagged RANKL or neo plasmid were picked and the cells were amplified from a 48-well plate to a 10 cm dish in the presence of G418. Stable clones were maintained in 200 μg/ml of G418 and routinely checked for flag-RANKL expression by western blot analysis.
Total RNA from cells was isolated using RNeasy Mini Kit (Qiagen, Valencia, Calif.) according to manufacturer's instructions. […]

[1] = tested on: cMyc site within the RANKL promoter in LNCaP cells; experiment: ChIP analysis (quantitative real-time PCR) of cMyc binding to the RANKL promoter; format: cell-based, human
[2] = tested on: cMet transcriptional activity; experiment: cMet promoter reporter assay; format: cell-based
[3] = tested on: LNCaP and LNCaP-RANKL cells; experiment: In vitro migration and invasion assays (transwell), LNCaP model; format: cell-based, human
Method: Migration and invasion of cancer cells were examined in 24-well plates using either uncoated or collagen I- and growth factor reduced Matrigel (BD Biosciences, Bedford, Mass.)-coated transwells (8 μm pore size), respectively, as previously described. Cells were serum-starved in RPMI 1640 or T-medium (Invitrogen, Carlsbad, Calif.) overnight and dissociated in 10 mM EDTA/HEPES. The lifted cells were washed and counted, and 5×10^4 cells were seeded in 100 μl of serum-free RPMI 1640 or T-medium in the upper chamber of the transwells in the presence or absence of 1 μg/ml OPG and 400 μl of RPMI 1640 or T-medium supplemented with 5% FBS was placed in the lower chamber of the transwells. After 24 h (migration) and 48 h (invasion) of culturing at 37° C., the migrated and invaded cells were fixed with 10% formaldehyde, stained with 0.5% crystal violet, and the cells at the upper side of the membrane of the chamber were removed and quantified.

[4] = recombinant RANKL 200 and 400, four days

Molecule: osteoprotegerin [OPG]
- RANKL expression in ARCaPM cells (ARCaPE and ARCaPM cells; 1 ug/ml of OPG): down-regulated
- Vimentin in ARCaPE cells (WB) (ARCaPE and ARCaPM cells; RANKL plus OPG): significantly reduced
- N-cad and Vimentin expression in ARCaPE cells (RT-PCR) (ARCaPE and ARCaPM cells; RANKL plus OPG compared to 300 ng/ml RANKL): slightly decreased
- E-cad expression in ARCaPE cells (RT-PCR, WB) (ARCaPE and ARCaPM cells; RANKL plus OPG compared to RANKL): restore
- RANKL-induced EMT and cadherin switch in ARCaPE cells (ARCaPE and ARCaPM cells; addition of OPG): blocked; also recorded: abolished
- RANKL-induced RANKL expression in ARCaPE cells (ARCaPE and ARCaPM cells; addition of OPG): attenuated
- EMT phenotype of ARCaPM cells (morphology, mesenchymal genes, cadherin switch) (ARCaPE and ARCaPM cells; exposure to OPG (1 μg/ml)): reversed
- induction of cMyc binding to the cMyc site ([1]; exposing to OPG): dampened
- RANKL up-regulated cMet transcriptional activity ([2]; OPG treatment): attenuated
- increased migration and invasion of LNCaP-RANKL cells ([3]; OPG treatment): antagonized; also recorded: suppressed
- RANKL-induced increase of migration and invasion of LNCaP cells ([3]; presence of OPG): abrogated

B1: RANKL: trimerized recombinant RANKL protein (rRANKL), receptor activator of NF-KB ligand (protein, UniProt O14788 69-317, looked up)
extracellular domain: YFRAQMDPNRISEDGTHCIYRILRLHENADFQDTTLESQDTKLIPDSCRRIKQAFQGAVQKELQHIVGSQHIRAEKAMVDGSWLDLAKRSKLEAQPFAHLTINATDIPSGSHKVSLSSWYHDRGWAKISNMTFSNGKLIVNQDGFYYLYANICFRHHETSGDLATEYLQLMVYVTKTSIKIPSSHTLMKGGSTKYWSGNSEFHFYSINVGGFFKLRSGEEISIEVSNPSLLDPDQDATYFGAFKVRDID
modifications: extracellular domain trimerized
- E-cadherin expression in ARCaPE cells (ARCaPE and ARCaPM cells; 200 ng/ml recombinant RANKL): down-regulated
- N-cadherin expression in ARCaPE cells (ARCaPE and ARCaPM cells; 200 ng/ml recombinant RANKL): up-regulated
- Snail, vimentin, and RANKL expression in ARCaPE cells (ARCaPE and ARCaPM cells; 200 ng/ml recombinant RANKL): up-regulation
- cell morphology of ARCaPE cells (ARCaPE and ARCaPM cells; 200 ng/ml recombinant RANKL protein, 8-day period): gradually changed their morphology from cobble-stoned clusters to more dispersed and fibroblastic-like appearance
- Vimentin in ARCaPE cells (WB) (ARCaPE and ARCaPM cells; RANKL alone): only slightly increased
- RANKL expression at mRNA and protein levels in ARCaPE cells (ARCaPE and ARCaPM cells; RANKL treatment): up-regulated
- N-cadherin expression in ARCaPE cells (Example 9) (ARCaPE and ARCaPM cells; [4]): slightly increased
- Snail expression in ARCaPE cells (Example 9) (ARCaPE and ARCaPM cells; [4]): no effect
- vimentin expression in ARCaPE cells (Example 9) (ARCaPE and ARCaPM cells; [4]): increases
- E-cadherin expression in ARCaPE cells (Example 9) (ARCaPE and ARCaPM cells; recombinant RANKL 200 and 400, four days, RNA and protein level): decrease
- increase of cMyc binding to the cMyc site ([1]; RANKL-treated LNCaP cells, quantitative real-time PCR): ~11 fold
- cMet transcriptional activity ([2]; RANKL treatment): up-regulated
- migration and invasion of LNCaP cells ([3]; recombinant RANKL treatment): increased

From US20130263297A1, “METHODS OF TREATING CANCER” (Cedars-Sinai Medical Center, priority 2010, published 2013)
